In article PMC12521282:

Key:
Settings in all cases: glycan lost; control: wild type
[1] = CD spectroscopy, secondary structure content
[2] = NanoDSF, onset and Tm, Tris and HEPES
[3] = secreted protein yield, P. pastoris X-33
[4] = DSLNT formation, TLC and HPLC
[5] = NanoDSF, onset of melting, Tris buffer
[6] = NanoDSF, midpoint melting temperature

| Protein | structure_or_conformation [1] | stability_or_folding, Tm [2] | expression_or_secretion, fold_change [3] | enzymatic_activity [4] | stability_or_folding, other: onset-of-melting temperature [5] | stability_or_folding, Tm [6] | enzymatic_activity, other: DSLNT produced [4] |
| --- | --- | --- | --- | --- | --- | --- | --- |
| ST6GalNAc6 (Δ70ST6GalNAc6): N98Q/N149Q (protein) parent chain: MACSRPPSQCEPTSLPPGPPAGRRHLPLSRRRREMSSNKEQRSAVFVILFALITILILYSSNSANEVFHYGSLRGRSRRPVNLKKWSITDGYVPILGNKTLPSRCHQCVIVSSSSHLLGTKLGPEIERAECTIRMNDAPTTGYSADVGNKTTYRVVAHSSVFRVLRRPQEFVNRTPETVFIFWGPPSKMQKPQGSLVRVIQRAGLVFPNMEAYAVSPGRMRQFDDLFRGETGKDREKSHSWLSTGWFTMVIAVELCDHVHVYGMVPPNYCSQRPRLQRMPYHYYEPKGPDECVTYIQNEHSRKGNHHRFITEKRVFSSWAQLYGITFSHPSWT | changes | decreases, reduced by 7.3 (Tris), 10 (HEPES) vs 56.8 | decreases | abolishes | – | – | – |
| ST6GalNAc5 (Δ71ST6GalNAc5): N137Q/N161Q (protein) parent chain: MKTLMRHGLAVCLALTTMCTSLLLVYSSLGGQKERPPQQQQQQQQQQQQASATGSSQPAAESSTQQRPGVPAGPRPLDGYLGVADHKPLKMHCRDCALVTSSGHLLHSRQGSQIDQTECVIRMNDAPTRGYGRDVGNRTSLRVIAHSSIQRILRNRHDLLNVSQGTVFIFWGPSSYMRRDGKGQVYNNLHLLSQVLPRLKAFMITRHKMLQFDELFKQETGKDRKISNTWLSTGWFTMTIALELCDRINVYGMVPPDFCRDPNHPSVPYHYYEPFGPDECTMYLSHERGRKGSHHRFITEKRVFKNWARTFNIHFFQPDWKPESLAINHPENKPVF | changes | – | decreases | – | decreases | no change | decreases, 0.189 ± 0.005 (4.5 µM enzyme) vs 0.202 ± 0.036 (1.0 µM enzyme) |
